For two substances, stoichiometry N, fold decrease in affinity against pH 5.5 and sarD transcript level (qRT-PCR) in the nip* mutant with 100 nM synthetic NIP results are on record in PMC12186490, “Environmental pH controls antimicrobial production by human probiotic Streptococcus salivarius” (Journal of Bacteriology, 2025).

A value given as a limit tells only on which side of the number the result lay.

For test [1], the target named is NRPS regulator NrpR (amino acids 1-285), recombinant, untagged (Streptococcus salivarius K12). The experiment in a line: SEC; Superdex 200 10/300 GL; 20 mM Tris-HCl pH 8.5, 200 mM NaCl, 1 mM TCEP, 5% glycerol; 1 mg/mL NrpR, room temperature; mass standards. For orientation: In gel filtration, larger molecules generally elute earlier.
In test [2] the target is fluorescein-labeled synthetic NRPS-inducing peptide (NIP) (Streptococcus salivarius K12). Nature of the test: fluorescence polarisation; 1 nM fluorescein-labeled NIP titrated with purified NrpR; 20 mM potassium phosphate, 75 mM NaCl, 2% DMSO, 1 mM EDTA, 0.0005% Tween 20; binding buffer adjusted to near neutral pH (pH 6.5 to 7.5) or pH 5.0. A general note: Polarisation of emitted light reports the rotation of a fluorescent probe.

In test [3] the target is NRPS regulator NrpR (amino acids 1-285), recombinant, untagged (Streptococcus salivarius K12).

For orientation: stoichiometry N means the number of molecules, sites or subunits per partner or assembly. For the substance “NRPS regulator NrpR (amino acids 1-285), recombinant, untagged (receptor)”, in test [1], the stoichiometry N worked out at 2. Besides, the fold decrease in affinity against pH 5.5 in test [2] was greater than 2 fold.
Regarding “fluorescein-labeled synthetic NRPS-inducing peptide (NIP)”, the sarD transcript level (qRT-PCR) in the nip* mutant with 100 nM synthetic NIP at pH 5.5 or 6.0, against the unsupplemented mutant; no significant induction at pH 6.5-7.5 or pH 5.0 in test [3] is greater than 75 fold.
